Test results published in the supplement of paper PMC12042874.
± gives the uncertainty stated by the source.

Assay: amyloid nucleation score (Sup35N fusion, yeast selection) (log enrichment); library NNK1; higher = more nucleation; inactive = no reads after selection
Procedure, shortened: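 Peptides of 20 random codons fused to Sup35N were expressed in psi-negative yeast, induced 24 hours with 100 μM copper sulfate, then grown 7 days at 30°C on medium lacking adenine and uracil. Input and output plasmid inserts were Illumina-sequenced. Nucleation score is the DiMSum log enrichment of output over input reads, centred on the mode score of non-aggregating sequences, excluding sequences with under 100 input reads. Random libraries had three technical output replicates.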

Substance | amyloid nucleation score
WGLNWSNSNN | inactive
NSILVNVYDKTFRVGLRGRN | inactive
SGSDVILAYTPTPPGDSPVW | 0.645 ± 0.61
FLLCVSHLELSY | 0.968 ± 0.49
YGYGY | -0.217 ± 0.23
QSAAFIIDLLTVFRKMEEVM | -0.666 ± 0.66
IGSMNCRLLVTWKMVWLVPH | -0.187 ± 0.5
KAGVSVLYLHMFLF | -0.303 ± 0.79
RVMLKSDRFYYVLKTCAY | 1 ± 0.37
RGYQNSLFTGMRRSSGSWSI | 0.43 ± 0.77
IEIGSSF | 0.118 ± 0.6
KLIVVSLIRDMQSNV | -0.059 ± 0.27
PYSWVEKASY | -0.322 ± 0.78
VLSPFTVKIDIKSKISVLGP | 4.11 ± 0.15
SGWIRLL | 0.66 ± 0.36
CVARIDCEWIKPLSLHCSCT | -0.499 ± 1.3
PNDSYNGL | -0.421 ± 0.46
LYRFNF | 0.223 ± 0.45
KSERERRVLMQRSDECVKSF | -0.297 ± 0.5
SHVPEVGVGSDAVFLANKGI | -0.855 ± 0.69
DRFLETICSEGSRPGSGN | 0.917 ± 0.21
SYKLVRTLNG | inactive

Substance | amyloid nucleation score
FNSGNQ | -0.442 ± 0.37
RLHSS | -0.036 ± 0.32
QTFSNPFFVLYLSNRLIPKV | 1.82 ± 0.29
PLPVVA | 0.225 ± 0.5
LYEAMPKTLAGIWSTPNMCV | -0.507 ± 0.93
QCMARVSQFFWFMLTWK | 0.748 ± 0.27
KTMMIGFNNMWGGVQ | 3.34 ± 0.21
QVTRYYGGNAVR | 1.59 ± 0.57
DVRGRHRCRFGSQQTKRQS | 0.586 ± 0.8
SFIELMMASRLF | 0.367 ± 0.35
TYGRASRALGDFRQITRVAS | -1.38 ± 1.7
NSCNDRFHLAMRQGF | 0.067 ± 0.84
NGWPWGERSALRMG | -0.573 ± 0.95
EFRSSVDWNAFMKLLVCTKH | 0.021 ± 0.93
AYLVPGQYVSPSFRFLTKNE | 0.215 ± 0.68
NEHAENDVTFQGNEDICVVM | -0.419 ± 0.34
YFIDLISWL | 0.198 ± 0.56
LTFTLTDPDSHDANDKWPLH | -0.208 ± 0.66
IAVSFSVVL | 5.49 ± 0.056
TRMLLMIL | -0.921 ± 2.4
NSDKLPRCHLSLSYV | 0.994 ± 0.28
WYYDCWIYL | 1.25 ± 0.46

Substance | amyloid nucleation score
FIWGLKLVDFSLPVSAL | -0.411 ± 0.51
KWGVCVLTHLGRYWLLLGCG | -0.145 ± 0.66
EQCTLVVSYGVWGHRSSCVG | 0.93 ± 0.45
ALCDYWDIA | inactive
KASGIMLSSGVLEILVWVQW | 0.01 ± 0.84
VLTTS | -0.086 ± 0.26
FDSRENETTCAMSEDMTYVV | -0.238 ± 0.22
ISEMVEWSISPTLGETVTCM | 0.363 ± 0.49
FYGFRCGYLDVSL | -0.648 ± 0.33
CDNLRCRGLGDWCAWQPLTS | 0.335 ± 0.65
SLLDMIYVIDTTTKNCILSK | 0.983 ± 0.35
CLGHLLLTESIPCSFCSYWM | 4.55 ± 0.075
LWVNTDSSLECHRWLRVIV | 1.2 ± 0.37
SSLLKWWDIVMKGEVIHGWC | -0.095 ± 0.47
DGHFVALSVLVCTMRC | 1.01 ± 0.65
GSSCNSLPFYVRDRFNTPCV | inactive
FQYLNLGISRHSARWTCTFL | -0.698 ± 1.4
SAYSKILSLPVRMGVWVAHI | 0.658 ± 0.42
LLIALFSW | 1.34 ± 0.25
FSSGVILSGRRRSLK | -0.437 ± 0.49
SIVRTDDIARLSLMLGRRSV | -0.724 ± 0.56
FPNALDYLYVV | -0.243 ± 0.22

Substance | amyloid nucleation score
SSGFSTMYIK | -0.892 ± 2.1
YKGLFR | 0.065 ± 0.45
RVFLMCCVGEMLRMLQLSSD | 6.46 ± 0.073
GSGVGKLCGLCSPG | 0.274 ± 0.69
SWCHVKIVSYRVSEVR | 0.228 ± 0.32
RSHHIWGY | 0.353 ± 0.48
QDTRTLQGCRQWQRWITAEG | 0.678 ± 0.84
TAYIIKHSFWLGPFNLGSLM | 3.88 ± 0.12
ICWLC | 6.912 ± 0.055
SHFVLMLFENSIIVCLEDWE | 1.91 ± 0.57
EKLRIVHQRRGRVHFNSGAI | -0.482 ± 0.41
EQHSPHPTIEKIALTCFTRC | -0.189 ± 0.4
TSGWCSRLQIIGLYLNVLVC | 5.47 ± 0.06
IGARQLSFLHSIRTREMRVQ | inactive
MLTECSRFLNVFGVGEHEVN | -0.162 ± 0.58
PFIWDDLAETVLNK | 0.144 ± 0.27
RFVIVEVSWLDSLLRLSWED | 0.277 ± 0.99
VGLLKAAEDGVLRIGVRRSW | 0.631 ± 0.8
IGVSVTPLLLKNKRPVTDVM | 1.07 ± 0.84
SGHGFLRQ | inactive
NCCGSLETSSVSVVYLMWGW | 5.917 ± 0.05
